Columns and labels:
alcohol dehydrogenase = assay: cell-based or functional assay
[1] = target: carboxy-terminal truncated Hsp20 (Babesia bovis) (Babesia bovis); assay: size exclusion FPLC (Superose 6) (self-association)

His-tagged Hsp20 from Babesia bovis (full length)
molar ratio of greatest reduction in light scattering at time infinity (molar ratio Hsp20 to ADH) (alcohol dehydrogenase): 2 | reduction in light scattering of ADH at 58° C., 60 minutes, molar ratio 2:1 Hsp20:ADH (alcohol dehydrogenase): 2.3 fold

carboxy-terminal truncated Hsp20 (Babesia bovis)
percent of protein as dimer [1]: 42%

Reference: patent publication US20060147463A1
